“Also recorded” adds a separate entry of the source.
What was measured:
[1] = 14C assay: 14CO2 capture from [14C]-carboxyl-labeled dicamba with purified protein; assay type: biochemical
[2] = LC-MS/MS detection of 4-chloro-3-methoxy phenol; assay type: biochemical; conditions: purified protein, dicamba
Experimental: The decarboxylated and chloro hydrolyzed product, 4-chloro-3-methoxy phenol (FIG. 1D), is measured using a LC-MS/MS analytical procedure. […] 10 ul is removed from the reaction mixture and mixed with 90 ul pre-chilled methanol followed by centrifugation at 14,000 rpm for 15 min at 4° C. 10 ul of the supernatant is then transferred into 170 ul ddH2O to achieve 5% methanol solution for injection. 50 ul of the prepared sample is injected into a 4000 Q Trap LC-MS/MS system for sample analysis. LC-MS/MS parameters are: Mobile Phase A, 2 mM ammonium acetate in water; Mobile Phase B, 2 mM ammonium acetate in methanol; Column, Aquasil, 100×2.1 mm, 3 μm, C18 column; Flow Rate, 0.6 ml/min. The MS/MS fragment 157/142 which is common to 4-chloro-3-methoxy phenol, 2-chloro-5-methoxy phenol, and 3-chloro-5-methoxy phenol is monitored at a retention time of 2.88 min.

[3] = GC/MS detection of 2,5-dichloro phenol (2,5-DCP); kinetic determination; assay type: biochemical; conditions: purified protein, dicamba
Experimental: The decarboxylated and demethylated product of dicamba, 2,5-dichloro phenol or 2,5-DCP (FIG. 1E) is measured using a GC/MS analytical procedure with either liquid injection after liquid/liquid extraction using toluene as the extraction solvent or gas injection using head space method. The head space sample analysis is carried out on an Agilent GC/MS system with a 6890A GC, a 5973N MSD and a CTC CombiPAL auto-sampler or with a 7890A GC, a 5975C MSD and an Agilent GC Sampler 80 auto-sampler with Phenomenex ZB-MultiResidue-1 column (30 m length, 0.25 mm diameter, 0.25 um film) or equivalent. GC/MS parameters are: GC inlet temperature, 200° C.; Carry gas, helium in constant flow mode (1.2 mL/min); Oven temperature program, 70° C. for 1 min and then ramp to 275° C. at 40° C./min. […] The reaction vial is transferred to a agitator for incubation at 90° C. for 4 min at 500 rpm. With a syringe preheated at 110° C., 1000 uL of head space is injected with sample fill speed at 100 uL/sec. A 2-mm diameter liner is used in sample inlet. The MS data acquisition is done in SIM (selected ion monitoring) mode. The positive ion at M/Z 162 for the molecular ion of 2,-5-DCP is monitored at retention time of 4.06 min. Solvent delay for MS acquisition is set at 3 min. GC/MS parameters for liquid sample analysis are the same as those for head space analysis, except that the volume of liquid injection is 1 uL.

[4] = Dicamba decarboxylation activity of computationally designed protein variants and parents (Tables 4, 5); conditions: for dicamba decarboxylase activity (statement in the description): native proteins and designed variants, assay not specified; for Percent Activity Improvement Over Parent (%): parent (SEQ ID NO: 1 or SEQ ID NO: 41) = 100
[5] = 14C assay: 14CO2 capture from [14C]-carboxyl-labeled dicamba with IPTG-induced recombinant E. coli cells; conditions: for Enzymatic Detection level: dicamba decarboxylation activity

B1: 114 (protein)
chain: MAQGKVALEEHFAIPETLQDSAGAVPGDYWKELQHRLLDIQDTRLKLMDAHGIETMILSLNAPAVQAIPDRRKAIEIARRANDVLAEECAKRPDRFLAFAALPLQDPDAATEELQRCVNDLGFVGALVNGFSQEGDGQTPLYYDLPQYRPFWGEVEKLDVPFYLHPRNPLPQDSRIYDGHPWLLGPTWAFAQETAVHALRLMASGLFDEHPRLNIILGHMGEGLPYMMWRIDHRVAWVKLPPRYPAKRRFMDYFNENFHITTSGNFRTQTLIDAILEIGADRILFSTDWPFENIDHASDWFNATSIAEADRVKIGRTNARRLFKLDGA
modifications: Dicamba decarboxylase variant clone DC.4.116
- CO2 product detected [1]: detected
- 4-chloro-3-methoxy phenol product detected [2]: detected
- 2,5-DCP product detected [3]: detected
- dicamba decarboxylase activity (statement in the description) [4]: displays an increase in dicamba decarboxylase activity
- Enzymatic Detection level [5]: High

B2: 109 (protein)
chain: MAQGKVALEEHFAIPETLQDSAGFVPGDYWKELQHRLLDIQDTRLKLMDAHGIETMILSLNAPAVQAIPDRRKAIEIARRANDVLAEECAKRPDRFLAFAALPLQDPDAATEELQRCVNDLGFVGALVNGFSQEGDGQTPLYYDLPQYRPFWGEVEKLDVPFYLHPRNPLPQDSRIYDGHPWLLGPTWAFAQETAVHALRLMASGLFDEHPRLNIILGHMGEGLPYMMWRIDHRVAWVKLPPRYPAKRRFMDYFNENFHITTSGNFRTQTLIDAILEIGADRILFSTDWPFENIDHASDWFNATSIAEADRVKIGRTNARRLFKLDGA
modifications: Dicamba decarboxylase variant clone DC.4.032
- CO2 product detected [1]: detected
- 4-chloro-3-methoxy phenol product detected [2]: detected
- 2,5-DCP product detected [3]: detected
- dicamba decarboxylase activity (statement in the description) [4]: more active than their parent sequence; also recorded: displays an increase in dicamba decarboxylase activity
- Enzymatic Detection level [5]: High

B3: 110 (protein)
chain: MAQGKVALEEHFAIPETLQDSMGFVPGDYWKELMHRLLDIQDTRLKLMDAHGIETMILSLNAPAVQAIPDRRKAIEIARRANDVLAEECAKRPDRFLAFAALPLQDPDAATEELQRCVNDLGFVGALVNGFSQEGDGQTPLYYDLPQYRPFWGEVEKLDVPFYLHPRNPLPQDSRIYDGHPWLLGPTWAFAQETAVHALRLMASGLFDEHPRLNIILGHMGEGLPYMMWRIDHRMAWVKLPPRYPAKRRFMDYFNENFHITTSGNFRTQTLIDAILEIGADRILFSTDWPFENIDHASDWFNATSIAEADRVKIGRTNARRLFKLDGA
modifications: Dicamba decarboxylase variant clone DC.4.111
- CO2 product detected [1]: detected
- 4-chloro-3-methoxy phenol product detected [2]: detected
- 2,5-DCP product detected [3]: detected
- dicamba decarboxylase activity (statement in the description) [4]: displays an increase in dicamba decarboxylase activity
- Enzymatic Detection level [5]: High

B4: 111 (protein)
chain: MAQGKVALEEHFAIPETLQDSMGFVPGDYWKELMHRLLDIQDTRLKLMDAHGIETMILSLNAPAVQAIPDRRKAIEIARRANDVLAEECAKRPDRFLAFAALPLQDPDAATEELQRCVNDLGFVGALVNGFSQEGDGQTPLYYDLPQYRPFWGEVEKLDVPFYLHPRNPLPQDSRIYDGHPWLLGPTWAFAQETAVHALRLMASGLFDEHPRLNIILGHMGEGLPYMMWRIDHRMAWIKLPPRYPAKRRFMDYFNENFHITTSGNFRTQTLIDAILEIGADRILFSTDWPFENIDHASDWFNATSIAEADRVKIGRTNARRLFKLDGA
modifications: Dicamba decarboxylase variant clone DC.4.112
- CO2 product detected [1]: detected
- 4-chloro-3-methoxy phenol product detected [2]: detected
- 2,5-DCP product detected [3]: detected
- dicamba decarboxylase activity (statement in the description) [4]: displays an increase in dicamba decarboxylase activity
- Enzymatic Detection level [5]: High

B5: 41 (protein, listed as Polaromonas sp.)
chain: MANGKIALEEHFATEETLMDSAGFVPDKDWPELRSRLLDIQDRRVRLMDEHGIETMILSLNAPAVQAIADSTRANETARRANDFLAEQVAKQPTRFRGFAALPMQDPELAARELERCVKELGFVGALVNGFSQDNRSAVPLYYDMAQYWPFWETVQALDVPFYLHPRNPLPSDARIYDGHAWLLGPTWAFGQETAVHALRLMGSGLFDKYPALKIILGHMGEGLPYSMWRIDHRNAWIKTTPKYPAKRKIVDYFNENFYLTTSGNFRTQTLIDAILEIGADRILFSTDWPFENIDHAADWFENTSISEADRKKIGWGNAQNLFKLNR
- CO2 product detected [1]: detected
- 4-chloro-3-methoxy phenol product detected [2]: detected
- 2,5-DCP product detected [3]: detected
- dicamba decarboxylase activity (statement in the description) [4]: natural activity; also recorded: native dicamba decarboxylase activity
- Percent Activity Improvement Over Parent (%) [4]: 100%
- Dicamba Decarboxylase Activity ([5]; IPTG-induced recombinant E. coli cells, 14CO2 from [14C]-carboxyl-labeled dicamba): High
- decarboxylation activity of dicamba ([5]; among the 108 sequences tested, recombinant E. coli cell assay): showed decarboxylation activity of dicamba
- Enzymatic Detection level [5]: High

B6: 115 (protein)
chain: MAQGKVALEEHFAIPDTLTTYTTSGDYEKELKHRLLDIQDTRLKLMDAHGIETMILSLNAPGVQAIPDRRKAIEIARRANDVLAEECAKRPDRFLAFAALPLQDPDAATEELQRCVNDLGFVGALVNGFSQEGDGQTPLYYDLPQYRPFWGEVEKLDVPFYLHPRNPLPQDSRIYDGHPWLLGPTWAFAQETAVHALRLMASGLFDEHPRLNIILGHMGEGLPYMMWRIDHRNAWVKTPPRYPAKRRFMDYFNENFHITTSGNFRTQTLIDAILEIGADRILFSTDWPFENIDHASDWFNATSIAEADRVKIGRTNARRLFKLDGA
modifications: Dicamba decarboxylase variant clone DC.4.161
- CO2 product detected [1]: detected
- 4-chloro-3-methoxy phenol product detected [2]: detected
- 2,5-DCP product detected [3]: detected
- dicamba decarboxylase activity (statement in the description) [4]: displays an increase in dicamba decarboxylase activity
- Enzymatic Detection level [5]: High

B7: 116 (protein)
chain: MAQGKVALEEHFAIPETLQDAAGFVPGDYWKELQHRLLDIQDRRVRLMDEHGIETMILSLNAPAVQAIADSTRANETARRANDFLAEQVAKQPTRFRGFAALPMQDPELAARELERCVKELGFVGALVNGFSQDNRSAVPLYYDMAQYWPFWETVQALDVPFYLHPRNPLPSDARIYDGHAWLLGPTWAFGQETAVHALRLMGSGLFDKYPALKIILGHMGEGLPYSMWRIDHRNAWIKTTPKYPAKRKIVDYFNENFYLTTSGNFRTQTLIDAILEIGADRILFSTDWPFENIDHAADWFENTSISEADRKKIGWGNAQNLFKLNR
modifications: Dicamba decarboxylase variant clone DC.30.007
- CO2 product detected [1]: detected
- 4-chloro-3-methoxy phenol product detected [2]: detected
- 2,5-DCP product detected [3]: detected
- dicamba decarboxylase activity (statement in the description) [4]: improved dicamba decarboxylase activity; also recorded: displays an increase in dicamba decarboxylase activity
- Percent Activity Improvement Over Parent (%) [4]: 220%
- Enzymatic Detection level [5]: High

Source: patent US20140289906A1, “Compositions Having Dicamba Decarboxylase Activity and Methods of Use” (priority 2013, published 2014)
